From PMC11968058
Where a chain is given by its changes, count along the chain named. Names may count otherwise.

B1: AtCOMT (Arabidopsis thaliana) (protein)
chain: MGSTAETQLTPVQVTDDEAALFAMQLASASVLPMALKSALELDLLEIMAKNGSPMSPTEIASKLPTKNPEAPVMLDRILRLLTSYSVLTCSNRKLSGDGVERIYGLGPVCKYLTKNEDGVSIAALCLMNQDKVLMESWYHLKDAILDGGIPFNKAYGMSAFEYHGTDPRFNKVFNNGMSNHSTITMKKILETYKGFEGLTSLVDVGGGIGATLKMIVSKYPNLKGINFDLPHVIEDAPSHPGIEHVGGDMFVSVPKGDAIFMKWICHDWSDEHCVKFLKNCYESLPEDGKVILAECILPETPDSSLSTKQVVHVDCIMLAHNPGGKERTEKEFEALAKASGFKGIKVVCDAFGVNLIELLKKL
B2: AtCOMT (Arabidopsis thaliana; F174L) (protein)
chain: B1 chain with F174L
B3: AtCOMT (Arabidopsis thaliana; F174L/H313A/N129V) (protein)
chain: B1 chain with N129V, F174L, H313A
B4: AtCOMT (Arabidopsis thaliana; H313A/N129V) (protein)
chain: B1 chain with N129V, H313A
B5: AtCOMT (Arabidopsis thaliana; N129V) (protein)
chain: B1 chain with N129V
B6: AtCOMT (Arabidopsis thaliana; H313A) (protein)
chain: B1 chain with H313A

Substrate: O=C(O)/C=C/c1ccc(O)c(O)c1
Assay: purified protein
Details: co-substrate SAM
[1] = optimal conditions (30°C, pH 8.0)
[2] = optimal conditions (35°C, pH 8.0)

| Protein | kcat (optimal conditions) [s⁻¹] | kcat/Km (optimal conditions) [M⁻¹ s⁻¹] | also measured |
| --- | --- | --- | --- |
| B1 |  |  | kcat [1]: 0.327 s⁻¹; kcat/Km [1]: 482 M⁻¹ s⁻¹ |
| B2 | 0.369 | 1120 |  |
| B3 |  |  | kcat [2]: 0.475 s⁻¹; kcat/Km [2]: 2020 M⁻¹ s⁻¹ |
| B4 | 0.498 | 1390 |  |
| B5 | 0.458 | 828 |  |
| B6 | 0.4 | 606 |  |
